Data published in article PMC4118823, “Structural and biophysical analysis of interactions between cod and human uracil-DNA N-glycosylase (UNG) and UNG inhibitor (Ugi)” (Acta Crystallographica Section D: Biological Crystallography, 2014).

Tests used:
[1] = target: T1, Uracil-DNA N-glycosylase from Atlantic cod (Atlantic cod, UniProt Q9I983 82-301); assay: ITC; Ugi (267-667 µM, syringe) injected into UNG (20-50 µM, cell); 25°C; 20 mM sodium phosphate pH 7.5, 200 mM sodium chloride; single-site binding model; conditions: both partners purified
T1 construct: Catalytic domain of uracil-DNA N-glycosylase (UNG) from Atlantic cod; Lanes et al., 2002). numbers count on: hUNG numbering; also called cUNG; cod UNG; source: recombinantly produced in E. coli; expression and purification as described previously (Assefa et al., 2012)
T1 sequence (Q9I983 entry or part of it): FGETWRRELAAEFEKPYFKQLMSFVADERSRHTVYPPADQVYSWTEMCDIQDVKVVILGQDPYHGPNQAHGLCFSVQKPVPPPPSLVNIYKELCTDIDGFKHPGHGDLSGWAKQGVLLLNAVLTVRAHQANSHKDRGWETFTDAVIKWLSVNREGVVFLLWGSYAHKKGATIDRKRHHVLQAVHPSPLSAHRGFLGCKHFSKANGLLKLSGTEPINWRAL

[2] = target: T2, human uracil-DNA N-glycosylase (human, UniProt P13051-2 1-304); assay: as above; conditions: both partners purified
T2 construct: Human uracil-DNA N-glycosylase (UNG), recombinant; also called hUNG; human UNG; source: expression and purification as described previously (Assefa et al., 2012)
T2 sequence (P13051 94-313): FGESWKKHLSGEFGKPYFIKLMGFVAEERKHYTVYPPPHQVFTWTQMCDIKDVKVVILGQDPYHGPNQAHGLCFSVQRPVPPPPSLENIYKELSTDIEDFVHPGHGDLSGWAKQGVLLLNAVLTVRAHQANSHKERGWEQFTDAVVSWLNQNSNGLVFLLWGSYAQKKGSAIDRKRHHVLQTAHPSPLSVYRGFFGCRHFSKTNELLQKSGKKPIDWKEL

B1: uracil-DNA N-glycosylase inhibitor (Ugi) (natural protein)
chain: MTNLSDIIEKETGKQLVIQESILMLPEEVEEVIGNKPESDILVHTAYDESTDENVMLLTSDAPEYKPWALVIQDSNGENKIKML
notes: expressed from a recombinant pRSETb plasmid provided by T. Géoui; source: E. coli BL21 (DE3) pLysS, purified (heating to 95°C, Q-Sepharose, Superdex 75)
For B1, the Ka [1] was 3.25e+07 M⁻¹, the Kd [1] was 31 nM and the dH [1] was -6 kcal/mol. The “stoichiometry N” value [1] was 0.994, the Ka [2] was 1.5e+06 M⁻¹ and the Kd [2] was 685 nM. For the same binder, the dH [2] was -2.25 kcal/mol and the “stoichiometry N” value [2] was 0.921.
